{
  "source": "patent US20190169637A1",
  "key": {"CD19": {"molecular_target": "CD19 (UniProt P15391)", "sequence (P15391 20-556 limits assumed)": "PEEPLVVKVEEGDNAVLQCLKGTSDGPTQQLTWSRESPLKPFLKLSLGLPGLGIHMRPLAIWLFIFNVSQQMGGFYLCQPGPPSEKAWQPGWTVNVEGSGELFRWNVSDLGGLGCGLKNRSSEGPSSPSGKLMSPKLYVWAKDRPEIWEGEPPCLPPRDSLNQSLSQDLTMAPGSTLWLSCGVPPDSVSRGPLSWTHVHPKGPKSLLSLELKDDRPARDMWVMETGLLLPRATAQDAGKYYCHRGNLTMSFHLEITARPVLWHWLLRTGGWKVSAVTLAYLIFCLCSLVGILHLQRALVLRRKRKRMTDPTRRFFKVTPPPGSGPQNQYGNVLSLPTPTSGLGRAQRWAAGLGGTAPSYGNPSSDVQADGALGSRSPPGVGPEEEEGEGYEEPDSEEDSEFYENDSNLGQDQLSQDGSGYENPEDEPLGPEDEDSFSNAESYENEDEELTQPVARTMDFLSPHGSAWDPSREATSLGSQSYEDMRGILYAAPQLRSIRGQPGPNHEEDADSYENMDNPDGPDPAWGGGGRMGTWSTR", "assay": "cell-based or functional assay"}, "[1]": {"tested_on": "Sleeping Beauty transposase SB100X (hyperactive) (synthetic construct (reconstructed Tc1-like fish transposon))", "assay": "cell_activity", "settings": "day 14, CD8+ T cells, n=7"}},
  "data": [
    {"substance": "CD19-CAR (FMC63 targeting domain, IgG4-Fc Hinge spacer, CD3zeta and 4-1BB costimulation) (from UniProt P01861 99-110; Q07011 214-255; P20963 52-163)", "values": [
      {"measurement": "proliferation by CFSE dilution (cell divisions in 72 hours)", "setting": "CD19", "result": "> 3"}
    ]},
    {"substance": "CD19-CAR_EGFRt transposon in pT2/HB plasmid", "values": [
      {"measurement": "activity (% EGFRt+ cells)", "setting": "[1]; SB100X from plasmid", "result": 12.8}
    ]},
    {"substance": "CD19-CAR_EGFRt transposon in pT2/HB minicircle", "values": [
      {"measurement": "activity (% EGFRt+ cells)", "setting": "[1]; SB100X from minicircle", "result": 49.8}
    ]}
  ]
}
